Consider seven sequences from paper PMC6426608.

Residue numbers refer to the chain shown, from its start.

Holding throughout (experiment): EMSA
Common to all, as to details: EMSA: 40 ng probe in 20 ul of 10 mM Tris-HCl pH 7.4, 50 mM KCl, 5 mM MgCl2, 10% glycerol; room temperature 20 min; 6% PAGE, DNA dye

The test system of series [1] is T1, RhpR (Pseudomonas savastanoi pv. phaseolicola 1448A), ORF:976030cf.
T1 sequence: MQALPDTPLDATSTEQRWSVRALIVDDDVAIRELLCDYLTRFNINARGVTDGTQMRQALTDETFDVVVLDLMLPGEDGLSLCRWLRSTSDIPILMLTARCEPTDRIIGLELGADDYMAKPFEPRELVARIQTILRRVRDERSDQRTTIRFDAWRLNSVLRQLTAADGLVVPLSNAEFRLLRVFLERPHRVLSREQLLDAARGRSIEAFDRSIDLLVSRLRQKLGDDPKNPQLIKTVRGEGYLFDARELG

Series [2] deals with T2, RhpR D70E D70E (Pseudomonas savastanoi pv. phaseolicola 1448A), ORF:976030cf.
T2 sequence: T1 sequence with D70E

The test system of series [3] is T3, RhpR D70A D70A (Pseudomonas savastanoi pv. phaseolicola 1448A), ORF:976030cf.
T3 sequence: T1 sequence with D70A

Take “TTCTCGAGTGAAATATCGACCTGAGGAAATTGCCCCTTTGATAATAGGACTCGCATGTATAATACCGGCCAAAACCGGACCAGCCGCCATTAACTTCTCTTCATGTAACGGCCATATCACCCCCGACTTGAACCGCCTTTTACTGCGTATGTGTCTGTTTTGGTACATTTCGCGACGCTCCAGCACTGGAAACGCCCGGGATCCAA (double strand) [ccmA promoter]”: in series [1], the binding result is reported as “binds”. As to “TTGGATCCGGAAACACCAGATGCATGAGCCGACGACGGTCATCCGTAAAAACCATGACCAAAGTGCATTGTTGCAAAGTTCATACCTTTTTGGCAGACCCTTTGCCTGTCAGATGACATCCATGTGACGTGGGGCACTACACGGCTGCCAGACGGGTCAGATCCAGGTGTGTCGCGAGACCGCCAAGGTGAATGAGCAGGGCTCGGCTATGCTTGCTCGCGGCGTTACATATTCTTCCCCCACTGAACAGGTGACAGTCCTCGAGAA (double strand) [PSPPH_2590-p-ΔIR]”, the binding entry in series [2] is reported as “no binding”. Take “TTGGATCCGGAAACACCAGATGCATGAGCCGACGACGGTCATCCGTAAAAACCATGACCAAAGGTAACAAGTGTGCTGCTGCATTGTTGCAAAGTTCATACCTTTTTGGCAGACCCTTTGCCTGTCAGATGACATCCATGTGACGTGGGGCACTACACGGCTGCCAGACGGGTCAGATCCAGGTGTGTCGCGAGACCGCCAAGGTGAATGAGCAGGGCTCGGCTATGCTTGCTCGCGGCGTTACATATTCTTCCCCCACTGAACAGGTGACAGTCCTCGAGAA (double strand) [PSPPH_2590 promoter]”: the binding result in series [3] is recorded as “binds more weakly”; in series [2], “binds”.

On to “TTCTCGAGTGAAATATCGACCTGAGGAAATTGCCCCTTTGATAATAGGACTCGCATGTATAATACCGGCCAAAACCGGACCAGCCGCCATTAACTTCTCTTCATGTAACGGCCATATCACCCCCGACTTGAACCGCCTTTTACTGCGTATATTTCGCGACGCTCCAGCACTGGAAACGCCCGGGATCCAA (double strand) [ccmA-ΔIR promoter]”, for which the binding entry in series [1] is “no binding”. With “TTGGATCCGACGGACCCTCGTGGGTAGCTCGGATGCTTGGGTGATAGCCCAAGCATCCGCCGTGTGCGAGGTACAACCATTGACCTGGCGCAATGAAGCAGCCTGATAGCAGACCGTTGGTCGAAGACTCTTCGGTCTACGTGTGCAGGGTGGCTGTTCTCGAGAA (double strand) [adhB promoter]”, the binding entry in series [1] is listed as “binds”. Still for that read-out and setting: for “TTGGATCCAACACCCTATCCACTGAAGGTCTTGGCGGGCAAAAAACAAGCCGAGGATTATACCCGAGCTATGACCCTCGAGAA (double strand) [rpoD promoter]” the value was “binds”; for “TTGGATCCGACGGACCCTCGTGGGGTGATAGCCCAAGCATCCGCCGTGTGCGAGGTACAACCATTGACCTGGCGCAATGAAGCAGCCTGATAGCAGACCGTTGGTCGAAGACTCTTCGGTCTACGTGTGCAGGGTGGCTGTTCTCGAGAA (double strand) [adhB-ΔIR promoter]”, “no binding”.
